Laboratory results reported in US20090118184A1 (UNIVERSITY OF ROCHESTER, published 2009).

Experiments:
Experiment in all cases: cell-based or functional assay
[1] = target: T1, factor VIIIa A1/A3C1C2 dimer, R282A (human, UniProt P00451 20-391; P00451 1709-2351)
T1 chain 1: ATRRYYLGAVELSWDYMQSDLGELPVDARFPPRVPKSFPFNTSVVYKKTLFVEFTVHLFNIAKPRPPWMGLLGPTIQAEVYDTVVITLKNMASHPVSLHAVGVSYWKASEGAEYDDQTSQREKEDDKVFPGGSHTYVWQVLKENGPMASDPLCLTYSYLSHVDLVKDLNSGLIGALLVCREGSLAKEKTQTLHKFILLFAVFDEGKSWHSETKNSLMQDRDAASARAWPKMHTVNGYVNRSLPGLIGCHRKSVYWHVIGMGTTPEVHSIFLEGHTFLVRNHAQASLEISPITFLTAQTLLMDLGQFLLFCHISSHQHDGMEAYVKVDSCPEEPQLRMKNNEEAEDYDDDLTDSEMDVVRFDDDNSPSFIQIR
T1 chain 2: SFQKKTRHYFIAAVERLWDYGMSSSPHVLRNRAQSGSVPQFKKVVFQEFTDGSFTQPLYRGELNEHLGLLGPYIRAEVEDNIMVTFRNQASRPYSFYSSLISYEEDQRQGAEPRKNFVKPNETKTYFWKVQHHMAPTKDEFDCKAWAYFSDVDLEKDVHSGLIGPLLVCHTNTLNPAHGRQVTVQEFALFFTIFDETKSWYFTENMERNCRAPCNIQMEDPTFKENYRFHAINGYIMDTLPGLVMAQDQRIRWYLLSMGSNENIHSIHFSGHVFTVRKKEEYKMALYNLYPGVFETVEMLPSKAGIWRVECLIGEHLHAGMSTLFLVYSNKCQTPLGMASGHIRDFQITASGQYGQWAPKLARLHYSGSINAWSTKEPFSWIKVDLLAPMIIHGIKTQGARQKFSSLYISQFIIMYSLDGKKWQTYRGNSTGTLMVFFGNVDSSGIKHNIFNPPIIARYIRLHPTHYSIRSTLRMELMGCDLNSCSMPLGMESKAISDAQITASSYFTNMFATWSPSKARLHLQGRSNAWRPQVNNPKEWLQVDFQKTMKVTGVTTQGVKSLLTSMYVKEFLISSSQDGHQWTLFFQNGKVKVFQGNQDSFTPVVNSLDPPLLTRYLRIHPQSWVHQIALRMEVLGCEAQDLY

[2] = target: T2, factor VIIIa A1/A3C1C2 dimer, H281A (human, UniProt P00451 20-391; P00451 1709-2351)
T2 chain 1: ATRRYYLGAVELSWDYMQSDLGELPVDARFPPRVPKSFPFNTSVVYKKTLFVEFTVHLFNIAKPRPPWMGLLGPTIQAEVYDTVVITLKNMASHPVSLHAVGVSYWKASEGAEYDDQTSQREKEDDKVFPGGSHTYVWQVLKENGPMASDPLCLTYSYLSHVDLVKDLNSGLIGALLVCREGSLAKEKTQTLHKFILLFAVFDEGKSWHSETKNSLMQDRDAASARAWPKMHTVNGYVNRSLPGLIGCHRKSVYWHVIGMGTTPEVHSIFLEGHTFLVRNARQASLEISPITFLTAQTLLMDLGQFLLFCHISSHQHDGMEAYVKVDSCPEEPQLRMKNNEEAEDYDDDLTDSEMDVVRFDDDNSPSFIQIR
T2 chain 2: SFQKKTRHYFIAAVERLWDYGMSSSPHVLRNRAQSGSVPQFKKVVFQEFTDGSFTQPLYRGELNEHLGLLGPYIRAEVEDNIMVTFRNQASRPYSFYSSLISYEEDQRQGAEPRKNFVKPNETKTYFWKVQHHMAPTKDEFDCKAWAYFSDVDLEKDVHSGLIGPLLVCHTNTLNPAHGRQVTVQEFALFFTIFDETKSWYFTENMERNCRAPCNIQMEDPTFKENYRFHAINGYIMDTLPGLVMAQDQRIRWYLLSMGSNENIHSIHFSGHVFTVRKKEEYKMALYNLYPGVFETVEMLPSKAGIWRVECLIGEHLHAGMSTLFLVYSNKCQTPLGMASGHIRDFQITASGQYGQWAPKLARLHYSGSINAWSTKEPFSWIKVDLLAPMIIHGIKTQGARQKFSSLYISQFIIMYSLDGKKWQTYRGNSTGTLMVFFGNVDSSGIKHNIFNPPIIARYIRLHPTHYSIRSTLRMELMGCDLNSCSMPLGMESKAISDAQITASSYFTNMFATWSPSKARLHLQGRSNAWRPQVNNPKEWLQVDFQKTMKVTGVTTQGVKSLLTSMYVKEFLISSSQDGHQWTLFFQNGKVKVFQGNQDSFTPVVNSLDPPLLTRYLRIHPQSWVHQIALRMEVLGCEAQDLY

[3] = target: T3, factor VIIIa A1/A3C1C2 dimer, D27A (human, UniProt P00451 20-391; P00451 1709-2351)
T3 chain 1: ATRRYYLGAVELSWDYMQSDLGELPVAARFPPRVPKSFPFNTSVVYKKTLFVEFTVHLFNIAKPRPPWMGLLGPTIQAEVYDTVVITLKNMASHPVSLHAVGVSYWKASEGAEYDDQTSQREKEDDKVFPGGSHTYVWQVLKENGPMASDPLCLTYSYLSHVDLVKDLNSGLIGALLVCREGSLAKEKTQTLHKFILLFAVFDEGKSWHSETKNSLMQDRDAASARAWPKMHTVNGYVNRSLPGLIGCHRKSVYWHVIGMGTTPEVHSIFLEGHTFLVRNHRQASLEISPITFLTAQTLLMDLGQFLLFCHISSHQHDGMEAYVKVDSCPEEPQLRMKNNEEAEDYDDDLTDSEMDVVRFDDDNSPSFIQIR
T3 chain 2: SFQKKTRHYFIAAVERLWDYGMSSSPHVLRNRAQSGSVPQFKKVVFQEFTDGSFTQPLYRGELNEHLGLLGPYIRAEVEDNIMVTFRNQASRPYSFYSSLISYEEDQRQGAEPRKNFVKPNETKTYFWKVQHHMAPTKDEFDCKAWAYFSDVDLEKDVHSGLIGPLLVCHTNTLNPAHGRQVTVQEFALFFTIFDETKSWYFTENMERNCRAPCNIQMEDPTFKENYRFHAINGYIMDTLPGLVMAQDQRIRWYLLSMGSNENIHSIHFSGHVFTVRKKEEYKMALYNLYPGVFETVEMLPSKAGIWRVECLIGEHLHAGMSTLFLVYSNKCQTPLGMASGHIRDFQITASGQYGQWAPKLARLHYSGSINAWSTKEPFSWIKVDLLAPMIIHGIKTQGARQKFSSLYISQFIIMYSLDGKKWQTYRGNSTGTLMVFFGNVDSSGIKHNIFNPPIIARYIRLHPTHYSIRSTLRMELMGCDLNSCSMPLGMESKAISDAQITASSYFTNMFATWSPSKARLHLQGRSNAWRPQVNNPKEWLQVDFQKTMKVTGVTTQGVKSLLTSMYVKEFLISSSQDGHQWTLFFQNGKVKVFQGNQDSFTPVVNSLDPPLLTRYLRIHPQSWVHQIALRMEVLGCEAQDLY

[4] = target: T4, factor VIIIa A1/A3C1C2 dimer, N1950A (human, UniProt P00451 20-391; P00451 1709-2351)
T4 sequence 1: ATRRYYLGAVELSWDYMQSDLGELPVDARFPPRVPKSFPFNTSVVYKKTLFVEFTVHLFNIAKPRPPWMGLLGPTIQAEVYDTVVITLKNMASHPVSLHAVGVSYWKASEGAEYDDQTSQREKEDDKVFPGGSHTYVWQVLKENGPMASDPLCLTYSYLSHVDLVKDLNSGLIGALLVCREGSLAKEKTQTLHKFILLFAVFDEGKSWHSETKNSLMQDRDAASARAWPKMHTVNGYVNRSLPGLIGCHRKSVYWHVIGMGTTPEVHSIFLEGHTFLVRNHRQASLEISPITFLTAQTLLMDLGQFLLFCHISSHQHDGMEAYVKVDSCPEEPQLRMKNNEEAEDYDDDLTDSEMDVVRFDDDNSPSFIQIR
T4 sequence 2: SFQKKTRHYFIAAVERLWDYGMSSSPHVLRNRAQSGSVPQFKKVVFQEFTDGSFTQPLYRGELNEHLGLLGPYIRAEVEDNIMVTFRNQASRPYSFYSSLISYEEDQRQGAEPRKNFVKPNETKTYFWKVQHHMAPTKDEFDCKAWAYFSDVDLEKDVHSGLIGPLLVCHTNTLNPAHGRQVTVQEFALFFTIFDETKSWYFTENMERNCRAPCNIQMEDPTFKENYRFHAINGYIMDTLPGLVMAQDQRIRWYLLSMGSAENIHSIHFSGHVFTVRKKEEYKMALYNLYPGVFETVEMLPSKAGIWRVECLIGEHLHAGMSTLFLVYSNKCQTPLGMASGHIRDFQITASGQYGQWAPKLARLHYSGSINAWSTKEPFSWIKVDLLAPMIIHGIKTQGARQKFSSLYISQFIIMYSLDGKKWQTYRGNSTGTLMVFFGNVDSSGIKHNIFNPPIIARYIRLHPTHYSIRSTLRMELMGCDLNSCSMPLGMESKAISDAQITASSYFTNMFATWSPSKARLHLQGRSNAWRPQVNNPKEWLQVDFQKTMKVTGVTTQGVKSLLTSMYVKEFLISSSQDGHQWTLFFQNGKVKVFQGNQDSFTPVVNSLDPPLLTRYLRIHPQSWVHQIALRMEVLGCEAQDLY

B1: factor VIIIa A2 subunit, wild type (other)
chain: SVAKKHPKTWVHYIAAEEEDWDYAPLVLAPDDRSYKSQYLNNGPQRIGRKYKKVRFMAYTDETFKTREAIQHESGILGPLLYGEVGDTLLIIFKNQASRPYNIYPHGITDVRPLYSRRLPKGVKHLKDFPILPGEIFKYKWTVTVEDGPTKSDPRCLTRYYSSFVNMERDLASGLIGPLLICYKESVDQRGNQIMSDKRNVILFSVFDENRSWYLTENIQRFLPNPAGVQLEDPEFQASNIMHSINGYVFDSLQLSVCLHEVAYWYILSIGAQTDFLSVFFSGYTFKHKMVYEDTLTLFPFSGETVFMSMENPGLWILGCHNSDFRNRGMTALLKVSSCDKNTGDYYEDSYEDISAYLLSKNNAIEPR
Factor VIIIa decay rate relative to wild type, FIXa (+) [1]: 41.7 relative to wild type
Factor VIIIa decay rate relative to wild type, FIXa (-) [1]: 10.7 relative to wild type
Factor VIIIa decay rate, FIXa (+) [1]: 0.471 min⁻¹
Factor VIIIa decay rate, FIXa (-) [1]: 0.674 min⁻¹
Factor VIIIa decay rate relative to wild type, FIXa (+) [2]: 3.99 relative to wild type
Factor VIIIa decay rate, FIXa (+) [2]: 0.045 min⁻¹
Factor VIIIa decay rate relative to wild type, FIXa (+) [3]: 0.79 relative to wild type
Factor VIIIa decay rate, FIXa (+) [3]: 0.0089 min⁻¹
Factor VIIIa decay rate relative to wild type, FIXa (+) [4]: 1.73 relative to wild type
Factor VIIIa decay rate, FIXa (+) [4]: 0.0195 min⁻¹
